Blank lines part the entries; values can stand above or below the molecule they belong to.
Experiments:
β‐arrestin2 = β‐arrestin2 (UniProt P32121); experiment: BRET, CB1R-YFP and β-arrestin2-Rluc; details: reference: wild type; sites S425,S429
[1] = molecular target: GRK3 (G protein‐coupled receptor kinase 3) (UniProt P35626); experiment: BRET, CB1R-YFP and GRK3-Rluc8; details: sites S425,S429
CB1R‐YFP (wild type) = CB1R‐YFP (wild type) (human, UniProt P21554 1-472); experiment: FRET or BRET
CB1R_2D‐YFP = CB1R_2D‐YFP (human, UniProt P21554 1-472, S425 mutated into aspartate | S429D); experiment: FRET or BRET
CB1R_6D‐YFP = CB1R_6D‐YFP (human, UniProt P21554 1-472, serine/threonine residues of 460TMSVSTDTS468 to aspartic acid); experiment: FRET or BRET
CB1R_6A‐YFP = CB1R_6A‐YFP (human, UniProt P21554 1-472, serine/threonine residues of 460TMSVSTDTS468 to alanine); experiment: FRET or BRET
CB1R_2A‐YFP = CB1R_2A‐YFP (human, UniProt P21554 1-472, S425A | S429A); experiment: FRET or BRET
[2] = reference: 460…468 mutant, S425/S429 intact

- other: agonist-promoted mBRET at 5 min (β‐arrestin2): weaker; reference 29.93 ± 1.51
- other: agonist-promoted mBRET at 5 min ([1]; reference: wild type): same; reference 35.54 ± 2.26
Molecule: Cannabinoid receptor 1 (CB1R) (from UniProt P21554) CB1R_2D (S425D, S429D)

- other: agonist-promoted mBRET at 5 min (β‐arrestin2): weaker; reference 29.33 ± 1.93
- other: agonist-promoted mBRET at 5 min ([1]; reference: wild type): stronger; reference 23.62 ± 3.54
Molecule: Cannabinoid receptor 1 (CB1R) (from UniProt P21554) CB1R_2A (S425A, S429A)

- other: agonist-promoted mBRET at 5 min [1, 2]: weaker; reference 28.95 ± 2.18
- other: agonist-promoted mBRET at 30 min [1, 2]: stronger; reference 27.11 ± 3.71
Molecule: Cannabinoid receptor 1 (CB1R) (from UniProt P21554) 425AMGDA429_460…468

- agonist-promoted mBRET at 30 min (CB1R‐YFP (wild type)): 8.82 mBRET
- agonist-promoted mBRET at 5 min (CB1R_2D‐YFP): 31.7 mBRET
- agonist-promoted mBRET at 5 min (CB1R_6D‐YFP): 27.5 mBRET
- agonist-promoted mBRET at 5 min (CB1R_6A‐YFP): 9.88 mBRET
- agonist-promoted mBRET at 5 min (CB1R_2A‐YFP): 63.6 mBRET
B1: GRK3‐Rluc8 (enzyme, human, UniProt P35626 1-688, looked up)
chain: MADLEAVLADVSYLMAMEKSKATPAARASKRIVLPEPSIRSVMQKYLAERNEITFDKIFNQKIGFLLFKDFCLNEINEAVPQVKFYEEIKEYEKLDNEEDRLCRSRQIYDAYIMKELLSCSHPFSKQAVEHVQSHLSKKQVTSTLFQPYIEEICESLRGDIFQKFMESDKFTRFCQWKNVELNIHLTMNEFSVHRIIGRGGFGEVYGCRKADTGKMYAMKCLDKKRIKMKQGETLALNERIMLSLVSTGDCPFIVCMTYAFHTPDKLCFILDLMNGGDLHYHLSQHGVFSEKEMRFYATEIILGLEHMHNRFVVYRDLKPANILLDEHGHARISDLGLACDFSKKKPHASVGTHGYMAPEVLQKGTAYDSSADWFSLGCMLFKLLRGHSPFRQHKTKDKHEIDRMTLTVNVELPDTFSPELKSLLEGLLQRDVSKRLGCHGGGSQEVKEHSFFKGVDWQHVYLQKYPPPLIPPRGEVNAADAFDIGSFDEEDTKGIKLLDCDQELYKNFPLVISERWQQEVTETVYEAVNADTDKIEARKRAKNKQLGHEEDYALGKDCIMHGYMLKLGNPFLTQWQRRYFYLFPNRLEWRGEGESRQNLLTMEQILSVEETQIKDKKCILFRIKGGKQFVLQCESDPEFVQWKKELNETFKEAQRLLRRAPKFLNKPRSGTVELPKPSLCHRNSNGL

Reference: article PMC9306533 (Journal of Neurochemistry, 2022)
